Assay results from PMC11239668.

Legend:
[1] = target: filamentous actin (F-actin) polymerized from G-actin purified from rabbit skeletal muscle (rabbit) (UniProt P68135)
[2] = target: filamentous actin (F-actin) polymerized from G-actin purified from rabbit skeletal muscle (rabbit) (UniProt P68135); remark: listed apart in the source

Row | Substance | percent activation of localisation to F-actin (0% inactive pepCAST, 100% ABM only) in live HeLa cells that co-express SZ21 [1] | percent activation of localisation to F-actin (0% inactive optoCAST, 100% ABM only) in live HeLa cells under blue light [2]
1 | ABS pepCAST (ABS pep6: SZ3-linker-ABS-linker-SZ4-eGFP) (designed binder) | > 80% | 
2 | ABS optoCAST (ABS opto1: mCherry-AsLOV2(403-540)-ABS) (from UniProt O49003 403-540) (designed binder) |  | 80%
